Drawing on paper PMC5985514, this text covers Kd for one substance.

As usually defined, the Kd is the free concentration of one partner at which half of the binding sites on the other are occupied at equilibrium, for simple one-to-one binding.

Like-named read-outs stand apart in the source and are kept apart here.

Holding throughout (test): NMR titration
The target in assay [1] is 3-fluorotyrosine labeled A34F variant of the B1 domain of protein G (T2Q background).
For assay [2] the target is unchanged. This is another data set of the same source.
Assay [3] shares this target. The source holds these as a separate data set.
Assay [4] has the same target. This is another data set of the same source.
Assay [5] has the same target. The source holds these as a separate data set.
The target is the same in assay [6]. The source holds these as a separate data set.
Assay [7] shares this target. This is another data set of the same source.
For assay [8] the target is unchanged. This is another data set of the same source.
Assay [9] has the same target. This is another data set of the same source.
The target is the same in assay [10]. The source holds these as a separate data set.

On to “3-fluorotyrosine labeled A34F variant of the B1 domain of protein G (T2Q background) (domain or fragment)”, for which the Kd in assay [1] amounted to 45 µM; in assay [2], 90 µM; in assay [3] it was 17 µM; in assay [4], 59 µM; in [5] it was 95 µM; in assay [6] it was 25 µM. Moreover, the Kd amounted to 85 µM in [7], 55 µM in [8], 80 µM in assay [9] and 26 µM in [10].
